Reference: paper PMC11982464, “Structural insight into the catalytic mechanism of the bifunctional enzyme L-fucokinase/GDP-fucose pyrophosphorylase” (The Journal of Biological Chemistry, 2025)

Tests used:
[1] = test system: C[C@@H]1O[C@H](OP(=O)(O)O)[C@@H](O)[C@H](O)[C@@H]1O; assay: purified protein; details: co-substrate GTP, 50 mM Hepes pH 7.5, 2 mM MgCl2
[2] = target: the molecule itself; assay: AUC + SEC-MALS; SV-AUC at 20 °C, about 0.5 mg/ml, 50 mM Tris pH 8.0, 150 mM NaCl, 40,000 rpm; SEC-MALS at 1 mg/ml in 50 mM Tris pH 8.0, 150 mM NaCl, ENrich SEC 650 column
[3] = GDP-fucose pyrophosphorylase site

FKP-FL (L-fucokinase/GDP-β-L-fucose pyrophosphorylase, full length) (Bacteroides fragilis)
Km [1, 3]: 0.040 ± 0.004 mM
kcat [1, 3]: 5.6 ± 0.3 s⁻¹
kcat/Km [1, 3]: 140000 M⁻¹ s⁻¹

SUMO-FKP-NTD (Bacteroides fragilis)
Km [1]: 0.080 ± 0.008 mM

B1: C-terminal domain of FKP (FKP-CTD), individually prepared (domain or fragment, Bacteroides fragilis 9343, UniProt Q58T34 518-949, looked up)
chain: MPELLPEDALQMSRIHNRMLRARILKLDGKDYRPEEQAAFDLLRDGLLDGISNRKSTPKLDVYSDQIVWGRSPVRIDMAGGWTDTPPYSLYSGGNVVNLAIELNGQPPLQVYVKPCKDFHIVLRSIDMGAMEIVSTFDELQDYKKIGSPFSIPKAALSLAGFAPAFSAVSYASLEEQLKDFGAGIEVTLLAAIPAGSGLGTSSILASTVLGAINDFCGLAWDKNEICQRTLVLEQLLTTGGGWQDQYGGVLQGVKLLQTEAGFAQSPLVRWLPDHLFTHPEYKDCHLLYYTGITRTAKGILAEIVSSMFLNSSLHLNLLSEMKAHALDMNEAIQRGSFVEFGRLVGKTWEQNKALDSGTNPPAVEAIIDLIKDYTLGYKLPGAGGGGYLYMVAKDPQAAVRIRKILTENAPNPRARFVEMTLSDKGFQVSRS
notes: L-fucokinase/GDP-fucose pyrophosphorylase (FKP), Bacteroides fragilis 9343, GenBank AY849806, C-terminal domain 518-949 (the abstract says 519-949); The calculated mass is printed as 49 kDa; The abstract gives 519-949, the results 518-949; source: E. coli BL21 (DE3), purified (HiTrap chelating HP, Superdex 200 gel filtration)
stoichiometry N [2]: 2

B2: full-length L-fucokinase/GDP-β-L-fucose pyrophosphorylase (FKP-FL) from Bacteroides fragilis 9343 (enzyme, UniProt Q58T34 1-949, looked up)
chain: MQKLLSLPSNLVQSFHELERVNRTDWFCTSDPVGKKLGSGGGTSWLLEECYNEYSDGATFGEWLEKEKRILLHAGGQSRRLPGYAPSGKILTPVPVFRWERGQHLGQNLLSLQLPLYEKIMSLAPDKLHTLIASGDVYIRSEKPLQSIPEADVVCYGLWVDPSLATHHGVFASDRKHPEQLDFMLQKPSLAELESLSKTHLFLMDIGIWLLSDRAVEILMKRSHKESSEELKYYDLYSDFGLALGTHPRIEDEEVNTLSVAILPLPGGEFYHYGTSKELISSTLSVQNKVYDQRRIMHRKVKPNPAMFVQNAVVRIPLCAENADLWIENSHIGPKWKIASRHIITGVPENDWSLAVPAGVCVDVVPMGDKGFVARPYGLDDVFKGDLRDSKTTLTGIPFGEWMSKRGLSYTDLKGRTDDLQAVSVFPMVNSVEELGLVLRWMLSEPELEEGKNIWLRSEHFSADEISAGANLKRLYAQREEFRKGNWKALAVNHEKSVFYQLDLADAAEDFVRLGLDMPELLPEDALQMSRIHNRMLRARILKLDGKDYRPEEQAAFDLLRDGLLDGISNRKSTPKLDVYSDQIVWGRSPVRIDMAGGWTDTPPYSLYSGGNVVNLAIELNGQPPLQVYVKPCKDFHIVLRSIDMGAMEIVSTFDELQDYKKIGSPFSIPKAALSLAGFAPAFSAVSYASLEEQLKDFGAGIEVTLLAAIPAGSGLGTSSILASTVLGAINDFCGLAWDKNEICQRTLVLEQLLTTGGGWQDQYGGVLQGVKLLQTEAGFAQSPLVRWLPDHLFTHPEYKDCHLLYYTGITRTAKGILAEIVSSMFLNSSLHLNLLSEMKAHALDMNEAIQRGSFVEFGRLVGKTWEQNKALDSGTNPPAVEAIIDLIKDYTLGYKLPGAGGGGYLYMVAKDPQAAVRIRKILTENAPNPRARFVEMTLSDKGFQVSRS
notes: The calculated mass is printed as 108 kDa; also called L-fucokinase/GDP-fucose pyrophosphorylase; source: E. coli BL21 (DE3), purified (HiTrap chelating HP, Superdex 200 gel filtration)
stoichiometry N [2]: 4
